The values below come from paper PMC5680790 (mAbs, 2017).

The target in assay [1] is T1, EGFR-ECD (UniProt P00533 25-645). The experiment in a line: BLI. On the technique in general: In BLI a coated tip is dipped into the sample, and binding shifts an interference pattern.
Assay [2] deals with T1, EGFR-ECD. As to the kind of experiment: BLI. The source holds these as a separate data set.

B1: Anti-EGFR mAb (antibody, V domains shown)
VH: EVQLVESGGGLVQPGGSLRLSCAASGFSLTNRGVHWVRQAPGKGLEWVGVIWSGGNTDYNTPFTSRFTISRDNSKNTLYLQMNSLRAEDTAVYYCARALTYYDYEFAYWGQGTLVTVSS
VL: not shown
The koff is the rate constant with which the complex falls apart. A lower koff goes with a long-lived complex. Broadly, the kon is a measure of how fast the partners come together. A lower kon goes with slower complex formation. The Kd is the concentration at which binding is half-saturated. Turning to B1, in the assay with EGFR-ECD [1], the koff stood at 0.00034 s⁻¹ and the kon is 350000 M⁻¹ s⁻¹. Besides, the Kd with EGFR-ECD [2] was ~1 nM.
